Experimental data from patent publication US20240132622A1 (Bristol-Myers Squibb, published 2024).

What was measured:
[1] = target: T1, recombinant human PAD4 (human, UniProt Q9UM07 1-663); experiment: cell-based or functional assay
[2] = target: T1, recombinant human PAD4; experiment: SPR 37 C, captured antibody, PAD4 analyte, 2 mM EDTA
Procedure: (§1) For SPR measurements, either an anti-human capture surface or Protein A surface (Cytiva catalog #29127555) was used. Anti-human capture surface was prepared by immobilizing anti-human capture antibody (Cytiva catalog #29234600) onto flow cells of a CM5 or CM4 biosensor following the manufacturer's amine coupling protocol (Cytiva catalog #BR-1006-33). SPR experiments were conducted at 37° C. using HBS-P (150 mM NaCl, 10 mM HEPES, pH 7.6, 0.05% Tween-20) (TEKNOVA catalog #H8032) with additional 150 mM NaCl and 1 mM or 2 mM CaCl₂) (see Table 2) or 2 mM EDTA (see Table 3) as running buffer. Antibodies were diluted to 1.5 μg/mL in the running buffer, and were captured across active biosensor flow cells at 10 μL/min for 15 to 30 seconds. […] The association and dissociation of the antibodies with PAD4 were measured. One 30 second injection followed by one 15 second injection of 10 mM glycine pH 1.5 was used to regenerate the Protein A capture surface between assay cycles. For anti-human capture surface, two 30 second injections of 3 M MgCl₂ was used for regeneration. SPR measurements for mAb20 and mAb 13 SPR were done in the presence of 2 mM CaCl₂). The remaining antibodies were tested in the presence of 1 mM CaCl₂).
(§2) Rate constants kₒₙ and koff were derived from reference flow cell- and 0 nM blank-subtracted sensorgrams, and were fit to a 1:1 binding model in Biacore® Insight Evaluation software version 3.0.12.15655. Deviations from 1:1 binding model were observed, which may be caused by increased dimerization of PAD4 at higher concentrations. The equilibrium dissociation constant, KD, was calculated as the ratio of rate constants koff/kₒₙ for each PAD4 antibody. For those antibodies that were tested in multiple SPR experiments, the average value and standard deviation from two or three separate experiments are listed in Tables 2 and 3.

[3] = target: T1, recombinant human PAD4; experiment: SPR 37 C, captured antibody, PAD4 analyte, 1 mM CaCl2
Procedure: Their binding to human PAD4 was measured by Surface Plasmon Resonance (SPR). SPR measurements were performed with a Biacore® 8K, 8K+, or T200 instrument (Cytiva). The association rate constants, kₒₙ, dissociation rate constants, koff, and equilibrium dissociation constants, KD, of the antibodies with PAD4 were determined from these SPR measurements.
as §1
as §2, with “antibody.” for “antibody. For those antibodies that were tested in multiple SPR experiments, the average value and standard deviation from two or three separate experiments are listed in Tables 2 and 3.”

[4] = target: extracellular matrix (ECM) proteins; experiment: ECM plate ELISA (Matrigel), 1 uM antibody, A450 over wells without sample

T1 sequence (Q9UM07 whole entry): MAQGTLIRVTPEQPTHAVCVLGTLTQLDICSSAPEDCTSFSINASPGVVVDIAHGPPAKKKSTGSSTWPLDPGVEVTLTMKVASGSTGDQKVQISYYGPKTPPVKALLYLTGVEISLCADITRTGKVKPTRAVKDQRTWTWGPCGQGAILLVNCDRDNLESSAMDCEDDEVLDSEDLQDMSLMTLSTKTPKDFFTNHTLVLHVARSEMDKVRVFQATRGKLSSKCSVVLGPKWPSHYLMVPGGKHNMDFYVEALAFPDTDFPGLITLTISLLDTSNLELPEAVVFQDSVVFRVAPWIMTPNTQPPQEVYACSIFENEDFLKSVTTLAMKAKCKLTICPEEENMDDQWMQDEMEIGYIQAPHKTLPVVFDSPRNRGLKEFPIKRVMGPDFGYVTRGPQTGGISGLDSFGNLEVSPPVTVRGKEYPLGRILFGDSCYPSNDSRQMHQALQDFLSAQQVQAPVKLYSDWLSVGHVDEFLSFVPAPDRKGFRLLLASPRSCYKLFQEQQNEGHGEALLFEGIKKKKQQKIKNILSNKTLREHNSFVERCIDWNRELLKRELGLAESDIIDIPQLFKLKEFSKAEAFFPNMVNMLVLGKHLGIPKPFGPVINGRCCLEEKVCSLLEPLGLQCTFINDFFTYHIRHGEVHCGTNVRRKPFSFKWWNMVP

Binder | IC50 (average), PAD4 citrullination of peptide …, RapidFire MS [1] | Kd [2] | koff [2] | kon [2] | Kd [3] | koff [3] | kon [3] | ECM Score (1 µM) [4]
hz20-7 (antibody, IgG1, V domains shown, also called clone 20-based hz20-7 antibody) VH: QVQLVQSGAEVKKPGASVKVSCKASGYTFTNYGISWVRQAPGQGLEWMGEIYPRSGNTYHNEKFKDRVTMTTDTSTSTAYMELRSLRSDDTAVYYCARSMITTRYWYFDVWGKGTTVTVSS VL: DIVMTQSPDSLAVSLGERATINCRASESVDTYGNSFMHWYQQKPGQPPKLLIYLASNLESGVPDRFSGSGSGTDFTLTISSLQAEDVAVYYCQQNNEDPLTFGQGTKLEIK | 64.7 nM | 0.5 nM | 0.00021 s⁻¹ | 380000 M⁻¹ s⁻¹ | 0.8 nM | 0.00026 s⁻¹ | 350000 M⁻¹ s⁻¹ | 5
hz20-11 (antibody, V domains shown, light constant region not tied to this antibody) VH: QVQLVQSGAEVAKPGASVKVSCKASGYTFTNYGISWVRQRPGQGLEWMGEIYPRSGNTYHNEKFKDRVTMTTDTSTSTAYMELRSLRSEDTAVYYCARSMITTRYWYFDVWGKGTTVTVSS VL: DIVMTQSPDSLAVSLGERATINCRASESVDTYGNSFMHWYQQKPGQPPKLLIYLASNLESGVPDRFSGSGSGTDFTLTISSLQAEDVAVYYCQQNNEDPLTFGQGTKLEIK | 65.7 nM | 0.6 nM | 0.00022 s⁻¹ | 390000 M⁻¹ s⁻¹ | 0.9 nM | 0.00025 s⁻¹ | 300000 M⁻¹ s⁻¹ | 4
hz13-12 (antibody, IgG1, V domains shown, also called clone 13-based hz13-12 antibody) VH: EVQLVQSGAEVKKPGATVKISCTSSDFNIKDHFIHWVQQAPGKGLEWMGRIDPEDDETKYAPKFQDRVTITADTSTDTAYMELSSLRSEDTAVYYCAGYGNYEGAMDYWGQGTTVTVSS VL: DVVMTQSPLSLPVTLGQPASISCRASENVNNYGIGFMNWFQQRPGQSPRLLIYAASRRGSGVPDRFSGSGSGTDFTLKISRVEEEDVGVYYCQQSKEVPYTFGGGTKVEIK | 42.4 nM |  |  |  | 0.1 nM | 0.0002 s⁻¹ | 3.1e+06 M⁻¹ s⁻¹ | 1
hz13-10 (antibody, V domains shown, light constant region not tied to this antibody) VH: EVQLVQSGAEVKKPGATVKISCKVSDFNIKDHFIHWVQQAPGKGLEWMGRIDPEDDETKYAPKFQDRVTITADTSTDTAYMELSSLRSEDTAVYYCAGYGNYEGAMDYWGQGTTVTVSS VL: DVVMTQSPLSLPVTLGQPASISCRASENVNNYGIGFMNWFQQRPGQSPRLLIYAASRRGSGVPDRFSGSGSGTDFTLKISRVEEEDVGVYYCQQSKEVPYTFGGGTKVEIK | 55.8 nM |  |  |  | 0.1 nM | 0.00017 s⁻¹ | 2.2e+06 M⁻¹ s⁻¹ | 1
hz13-11 (antibody, V domains shown, light constant region not tied to this antibody) VH: EVQLVQSGAEVKKPGATVKISCTSSDFNIKDHFIHWVQQAPGKGLEWMGRIDPEDDETKYAPKFQDRVTITADTSTDTAYMELSSLRSEDTAVYYCAGYGNYEGAMDYWGQGTTVTVSS VL: DVVMTQSPLSLPVTLGQPASISCRASENVNNYGIGFMNWFQQRPGQSPRRLIYAASRRGSGVPDRFSGSGSGTDFTLKISRVEAEDVGVYYCQQSKEVPYTFGGGTKVEIK | 88.7 nM |  |  |  | 0.1 nM | 0.00015 s⁻¹ | 1.9e+06 M⁻¹ s⁻¹ | 1

Next, values leading:

IC50 (average), PAD4 citrullination of peptide …, RapidFire MS [1] | Kd [2] | koff [2] | kon [2] | Kd [3] | koff [3] | kon [3] | ECM Score (1 µM) [4] | Binder
118 nM | 3 nM | 0.00073 s⁻¹ | 240000 M⁻¹ s⁻¹ | 1.7 nM | 0.00046 s⁻¹ | 270000 M⁻¹ s⁻¹ | 1 | hz20-4 (antibody, V domains shown, light constant region not tied to this antibody) VH: QVQLVQSGAEVKKPGASVKVSCKASGYTFTNYGISWVRQAPGQGLEWMGEIYPRSGNTYHNEKFKDRVTMTADTSTSTVYMELSSLRSEDTAVYYCARSMITTRYWYFDVWGKGTTVTVSS VL: DIVMTQSPDSLAVSLGERATINCRASESVDTYGNSFMHWYQQKPGQPPKLLIYLASNLESGVPDRFSGSGSGTDFTLTISSLQAEDVAVYYCQQNNEDPLTFGAGTKLELK
56.5 nM | 1.7 nM | 0.0004 s⁻¹ | 240000 M⁻¹ s⁻¹ | 1.9 nM | 0.00045 s⁻¹ | 250000 M⁻¹ s⁻¹ | 3 | hz20-5 (antibody, V domains shown, light constant region not tied to this antibody) VH: QVQLVQSGAEVKKPGASVKVSCKASGYTFTNYGISWVRQRPGQGLEWIGEIYPRSGNTYHNEKFKDRVTMTADTSTSTVYMELSSLRSEDTAVYYCARSMITTRYWYFDVWGKGTTVTVSS VL: DIVMTQSPDSLAVSLGERATINCRASESVDTYGNSFMHWYQQKPGQPPKLLIYLASNLESGVPDRFSGSGSGTDFTLTISSLQAEDVAVYYCQQNNEDPLTFGAGTKLELK
71.9 nM | 0.6 nM | 0.00022 s⁻¹ | 360000 M⁻¹ s⁻¹ | 0.8 nM | 0.00025 s⁻¹ | 320000 M⁻¹ s⁻¹ | 4 | hz20-8 (antibody, V domains shown, light constant region not tied to this antibody) VH: QVQLVQSGAEVKKPGASVKVSCKASGYTFTNYGISWVRQAPGQGLEWMGEIYPRSGNTYHNEKFKDRVTMTTDTSTSTAYMELRSLRSDDTAVYYCARSMITTRYWYFDVWGKGTTVTVSS VL: DIVMTQSPDSLAVSLGERATINCRASESVDTYGNSFMHWYQQKPGQPPKLLIYLASNLESGVPDRFSGSGSGTDFTLTIDSLQAEDVAVYYCQQNNEDPLTFGQGTKLEIK
107 nM | 0.4 nM | 0.00018 s⁻¹ | 480000 M⁻¹ s⁻¹ | 0.3 nM | 0.00015 s⁻¹ | 490000 M⁻¹ s⁻¹ | 19 | hz20-9 (antibody, V domains shown, light constant region not tied to this antibody) VH: QVQLVQSGAEVKKPGASVKVSCKASGYTFTNYGISWVRQAPGQGLEWMGEIYPRSGNTYHNEKFKDRVTMTTDKSTSTAYMELRSLRSDDTAVYYCARSMITTRYWYFDVWGKGTTVTVSS VL: DIVMTQSPDSLAVSLGERATINCRASESVDTYGNSFMHWYQQKPGQPPKLLIYLASNLESGVPDRFSGSGSGTDFTLTISSLQAEDVAVYYCQQNNEDPLTFGQGTKLEIK
57.4 nM | 0.4 nM | 0.00018 s⁻¹ | 480000 M⁻¹ s⁻¹ | 0.3 nM | 0.00017 s⁻¹ | 640000 M⁻¹ s⁻¹ | 18 | hz20-10 (antibody, V domains shown, light constant region not tied to this antibody) VH: QVQLVQSGAEVKKPGASVKVSCKASGYTFTNYGISWVRQAPGQGLEWMGEIYPRSGNTYHNEKFKDRVTMTTDKSTSTAYMELRSLRSDDTAVYYCARSMITTRYWYFDVWGKGTTVTVSS VL: DIVMTQSPDSLAVSLGERATINCRASESVDTYGNSFMHWYQQKPGQPPKLLIYLASNLESGVPDRFSGSGSGTDFTLTIDSLQAEDVAVYYCQQNNEDPLTFGQGTKLEIK
59 nM | 0.6 nM | 0.00021 s⁻¹ | 380000 M⁻¹ s⁻¹ | 0.6 nM | 0.00019 s⁻¹ | 320000 M⁻¹ s⁻¹ | 3 | hz20-12 (antibody, V domains shown, light constant region not tied to this antibody) VH: QVQLVQSGAEVAKPGASVKVSCKASGYTFTNYGISWVRQRPGQGLEWMGEIYPRSGNTYHNEKFKDRVTMTTDTSTSTAYMELRSLRSEDTAVYYCARSMITTRYWYFDVWGKGTTVTVSS VL: DIVMTQSPDSLAVSLGERATINCRASESVDTYGNSFMHWYQQKPGQPPKLLIYLASNLESGVPDRFSGSGSGTDFTLTIDSLQAEDVAVYYCQQNNEDPLTFGQGTKLEIK
 |  |  |  | 0.1 nM | 0.0003 s⁻¹ | 2.7e+06 M⁻¹ s⁻¹ |  | hz13-12 D31E (antibody, human IgG1, kappa, V domains shown, IgG1.3f; also called hz3-12 D31E) VH: EVQLVQSGAEVKKPGATVKISCTSSDFNIKEHFIHWVQQAPGKGLEWMGRIDPEDDETKYAPKFQDRVTITADTSTDTAYMELSSLRSEDTAVYYCAGYGNYEGAMDYWGQGTTVTVSS VL: DVVMTQSPLSLPVTLGQPASISCRASENVNNYGIGFMNWFQQRPGQSPRLLIYAASRRGSGVPDRFSGSGSGTDFTLKISRVEEEDVGVYYCQQSKEVPYTFGGGTKVEIKR
